Measured values taken from patent US20130055470.

B1: ZmTR1 protein (protein)
chain: MAGDDHVVVDVNGLAKSKDDGGSKKLSEDANGSAPAAASLSAAVDLVQEEEEEEGDGEEQPLIQAAECRICQEEDSVKNLEKPCACSGSLKYAHRACVQRWCNEKGDTTCEICHEEYKPGYTAPPRVQPDETTIDIDGDLVMDLRDPRILAVAAAQHRLLEAEYDGYASTDASGAAFCRSAALILMALLLLRHALSMSDNEGNDDDASTIFSLFLLRAAGFLLPCYIMAWIFSILHRRRQRQEEAALAAAEVAFILQSARGRALQFAIAPDSPATPQHEPVSQQQQ
B2: OsTR1-1 protein (protein)
chain: MGDHVAVDVGGLMASRGAGEEETGALIGMVECRICQEEDLAKNLESPCACSGSLKYAHRECVQRWCNEKGDIICEICHVSYKPGYTAPPQVHHDETTIEISSGDWSISGNRLDLHDPRILAMAAAQHRLLEDEYDEYTATNNNAAAFCRSIFLILMALLLLRHTLTITSSDDEDDASAIFSLFLLRAAGFLLPCYIMAWAISIMQRQRQRQEEAMLLPTEVAIILHRNGRTMQFAVAPESPTTPHPEQGQ
B3: AtTR1 protein (protein)
chain: MADHLSLCTDRLITSESLDSEKDSDSSGESSYRPQGTDLASSSVNETEVPREYYAVADEEEPLLQSVECRICQEEDSTKNLEAPCACNGSLKYAHRKCVQRWCNEKGDITCEICHQPYQHGYTAPPPPPPDETIIHIGDDWENGVPLDLTDPRILAMAAAERHFLEADYDEYSENNSSGAAFCRSAALILMALLLLRDALNLTTNPDDEDDPTAFFSLFLLRAAGFLLPCYIMAWAIGILQRRRQRQEAAALAAAEVTFMIHGGGPQRRGLHFAVAPQPPISNVPTPV

Each protein was assayed against ubiquitin.

| Protein | E3 ubiquitin ligase activity (in vitro ubiquitination reaction, anti-Ub Western blot) |
| --- | --- |
| B1 | multiple bands occurred in the lane with the addition of E1, E2, ATP and Ub, while no band occurred in the control |
| B2 | multiple bands occurred in the lane with the addition of E1, E2, ATP and Ub, while no band occurred in the control |
| B3 | multiple bands occurred in the lane with the addition of E1, E2, ATP and Ub, while no band occurred in the control |
